Laboratory results as given in patent US20200062828A1 (PANASONIC INTELLECTUAL PROPERTY MANAGEMENT, published 2020).

What was measured:
[1] = target: T1, VLP noro antigen derived from the norovirus GII/4, composed by associating 90 dimers of VP1 each including … (norovirus GII/4, UniProt P54635 1-539); assay: SPR (T200, CM3), VLP noro antigen immobilized, antibody as analyte
T1 construct: Virus-like particle; also called solid phase VLP
T1 chain: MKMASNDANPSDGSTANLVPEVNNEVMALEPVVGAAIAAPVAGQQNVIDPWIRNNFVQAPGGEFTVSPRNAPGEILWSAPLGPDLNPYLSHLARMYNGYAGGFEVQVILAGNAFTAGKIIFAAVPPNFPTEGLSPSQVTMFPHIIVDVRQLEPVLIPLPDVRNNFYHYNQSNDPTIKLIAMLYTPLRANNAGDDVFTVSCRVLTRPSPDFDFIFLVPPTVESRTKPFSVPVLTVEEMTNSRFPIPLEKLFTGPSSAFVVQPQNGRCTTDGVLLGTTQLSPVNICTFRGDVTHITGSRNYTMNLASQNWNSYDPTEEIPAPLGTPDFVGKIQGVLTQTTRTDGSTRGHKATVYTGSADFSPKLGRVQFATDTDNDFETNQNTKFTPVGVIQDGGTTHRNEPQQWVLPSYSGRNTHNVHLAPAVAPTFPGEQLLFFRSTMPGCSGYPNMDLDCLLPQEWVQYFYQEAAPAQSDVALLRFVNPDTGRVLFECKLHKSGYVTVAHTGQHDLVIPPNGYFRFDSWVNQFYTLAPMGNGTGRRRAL

[2] = target: T2, noro antigen (recombinant of the p-domain protein of the GII/4 norovirus (NSW-2012)) (GII/4 norovirus (NSW-2012), UniProt P54635 1-539); assay: SPR (T200), VHH immobilized, noro antigen as analyte added serially
T2 construct: Viral capsid protein antigen; also called antigen of the norovirus; recombinant p-domain protein
T2 chain: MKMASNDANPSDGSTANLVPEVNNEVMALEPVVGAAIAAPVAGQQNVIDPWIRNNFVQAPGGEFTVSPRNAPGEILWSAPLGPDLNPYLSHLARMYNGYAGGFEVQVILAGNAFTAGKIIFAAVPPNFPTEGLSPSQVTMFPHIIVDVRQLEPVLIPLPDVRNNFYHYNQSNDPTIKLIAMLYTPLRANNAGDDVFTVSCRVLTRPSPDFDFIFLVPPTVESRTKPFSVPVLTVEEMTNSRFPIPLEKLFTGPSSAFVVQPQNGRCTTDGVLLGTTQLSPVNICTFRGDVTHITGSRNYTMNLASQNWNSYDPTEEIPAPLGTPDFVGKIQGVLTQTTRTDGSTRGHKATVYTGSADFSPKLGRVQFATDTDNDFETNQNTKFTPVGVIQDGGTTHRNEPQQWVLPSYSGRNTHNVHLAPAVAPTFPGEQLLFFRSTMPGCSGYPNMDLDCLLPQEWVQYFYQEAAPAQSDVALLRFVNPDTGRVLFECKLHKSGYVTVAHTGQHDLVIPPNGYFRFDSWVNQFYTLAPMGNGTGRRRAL

[3] = target: T2, noro antigen (recombinant of the …); assay: SPR (T200, CM5), noro antigen immobilized, VHH as analyte added serially
[4] = target: T2, noro antigen (recombinant of the …); assay: SPR (T200, CM5), noro antigen immobilized, VHH as analyte, separate concentrations

Binder | Kd [1] | koff [1] | kon [1] | Kd [2] | Kd [3] | Kd [4]
dimer antibody (SEQ ID NO: 99) in which the structure domain of SEQ ID NO: 39 and the structure domain of SEQ ID NO: 38 are connected from N to C via a linker (VHH, Single-chain tandem heterodimer of two VHH domains (39 then 38); also called Divalent 99) QLQLVESGGGLVQAGGSLRLSCVASGFPFASSAMAWFRQAPGKEREFVASISYRGITTYYAQPVKGRFTMSRDNAKNTVYLQMNSLKPEDTAVYYCYAKSIWGNAYWGQGTQVTVSPGGGGSGGGASGGGGSQVQLVESGGGVVQTGGSLRLSCAASGSTFSIGAMGWYRQAPGKQRELVATVNRASRTIYADSVRGRFTISRDNAKNLVYLQMNNLKPEDTAVYYCNVIATSASGRGVTSTSWGQGSQVTVSSEPKTPKPQSASAA | 0.00947 nM | 0.000356 s⁻¹ | 3.75e+07 M⁻¹ s⁻¹ |  |  | 
dimer antibody having two of the structural domains each having the amino acid sequence represented by SEQ ID NO: 38 (SEQ ID NO: 97) (VHH, also called Divalent 97) QVQLVESGGGVVQTGGSLRLSCAASGSTFSIGAMGWYRQAPGKQRELVATVNRASRTIYADSVRGRFTISRDNAKNLVYLQMNNLKPEDTAVYYCNVIATSASGRGVTSTSWGQGSQVTVSSGGGGSGGGASGGGGSQVQLVESGGGVVQTGGSLRLSCAASGSTFSIGAMGWYRQAPGKQRELVATVNRASRTIYADSVRGRFTISRDNAKNLVYLQMNNLKPEDTAVYYCNVIATSASGRGVTSTSWGQGSQVTVSSEPKTPKPQSASAA | 0.13 nM | 0.000302 s⁻¹ | 2.32e+06 M⁻¹ s⁻¹ |  |  | 
VHH antibody including the amino acid sequence represented by SEQ ID NO: 40 (VHH, not shown: C-terminal 3xFlag tag and His tag from the modified pET22b(+) vector) VHH: QLQLVEPGGGVVQPGGSLRLSCLASGSDFSLGAMGWYRQAPGKQRELVAIINRASWTRYADSVKGRFTISRDNSKNLVFLQMNNLKPDDTAVYYCNAIATSASGRGVTSTSWGQGSQVTVSS |  |  |  | 9.57 nM | 9.5 nM | 
VHH antibody including the amino acid sequence represented by SEQ ID NO: 39 (VHH, also called Monovalent 65; not shown: C-terminal 3xFlag tag and His tag from the modified pET22b(+) vector) VHH: QLQLVESGGGLVQAGGSLRLSCVASGFPFASSAMAWFRQAPGKEREFVASISYRGITTYYAQPVKGRFTMSRDNAKNTVYLQMNSLKPEDTAVYYCYAKSIWGNAYWGQGTQVTVSP | 54.8 nM |  |  | 15.9 nM | 15.8 nM | 
VHH antibody including the amino acid sequence represented by SEQ ID NO: 42 (VHH, also called anti-noro antibody; not shown: C-terminal 3xFlag tag and His tag from the modified pET22b(+) vector) VHH: ELQLVESGGGAVHTGGSLRLSCAVSGRTDIRYAMGWFRQAPGREREFVAAISWNGDDTFYADSVKGRFTISRDNAKNAVSLQMDSLRPEDTAVYYCNARNSYAAFARAYWGQGTQVTVSS |  |  |  | 13.1 nM |  | 63.8 nM
VHH antibody including the amino acid sequence represented by SEQ ID NO: 43 (VHH, also called anti-noro antibody; not shown: C-terminal 3xFlag tag and His tag from the modified pET22b(+) vector) VHH: QLQLVESGGGLVQPGGSLRLSCAASGFTLDYYAIGWFRQAPGNEREFVAAISWNGGSTYYADSVKGRFTISRDNAKETVYLQMNSLKPEDTGVYYCNYRPQFGLGYNYWGQGTQVTVSS |  |  |  | 10.3 nM |  | 5.45 nM
dimer antibody (SEQ ID NO: 98) in which the structure domain of SEQ ID NO: 38 and the structure domain of SEQ ID NO: 39 are connected from N to C via a linker (VHH, Single-chain tandem heterodimer of two VHH domains (38 then 39); also called Divalent 98) QVQLVESGGGVVQTGGSLRLSCAASGSTFSIGAMGWYRQAPGKQRELVATVNRASRTIYADSVRGRFTISRDNAKNLVYLQMNNLKPEDTAVYYCNVIATSASGRGVTSTSWGQGSQVTVSSGGGGSGGGASGGGGSQLQLVESGGGLVQAGGSLRLSCVASGFPFASSAMAWFRQAPGKEREFVASISYRGITTYYAQPVKGRFTMSRDNAKNTVYLQMNSLKPEDTAVYYCYAKSIWGNAYWGQGTQVTVSPEPKTPKPQSASAA | 0.485 nM | 0.00198 s⁻¹ | 4.08e+06 M⁻¹ s⁻¹ |  |  | 
VHH antibody including the amino acid sequence represented by SEQ ID NO: 38 (VHH, Alpaca VHH expressed in E. coli; also called monomer antibody; not shown: C-terminal 3xFlag tag and His tag from the modified pET22b(+) vector) VHH: QVQLVESGGGVVQTGGSLRLSCAASGSTFSIGAMGWYRQAPGKQRELVATVNRASRTIYADSVRGRFTISRDNAKNLVYLQMNNLKPEDTAVYYCNVIATSASGRGVTSTSWGQGSQVTVSS | 149 nM | 0.0214 s⁻¹ | 144000 M⁻¹ s⁻¹ | 4.15 nM | 1.15 nM | 
VHH antibody including the amino acid sequence represented by SEQ ID NO: 41 (VHH, also called anti-noro antibody; not shown: C-terminal 3xFlag tag and His tag from the modified pET22b(+) vector) VHH: EVQLVESGGGLVQAGGSLRLSCAVSGRTSSRYVMGWVRQAPGKEREFLAAISWSAGYTFYRDSVKGRFTISRDNAKNTVYLQMNSLKPEDTAVYYCNADENGLGRKRGFGSWGQGTQVTVSS |  |  |  | 4.98 nM |  | 81.6 nM
